From US20050106674A1

Biological target: recombinant soluble HEK4 binding protein purified from CHO/HL6 cell-conditioned medium (human) (UniProt P52803)
Test: BIAcore competition: soluble receptor extracellular domain preincubated with 0.250 µg/ml HEK4 BP, binding to immobilized HEK4 receptor

Sequence of UniProt P52803 (P52803 20-198 limits assumed, form in doubt): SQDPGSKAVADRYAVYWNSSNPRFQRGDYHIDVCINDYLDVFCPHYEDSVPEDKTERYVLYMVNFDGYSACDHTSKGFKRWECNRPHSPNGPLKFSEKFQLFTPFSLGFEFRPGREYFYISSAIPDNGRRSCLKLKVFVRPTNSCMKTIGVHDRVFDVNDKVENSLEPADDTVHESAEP

Row | Substance | IC50
1 | ECK soluble receptor (purified extracellular domain) (from UniProt P29317 24-537) | 5 µg/mL
2 | HEK4 receptor extracellular domain (HEK4-X), produced in CHO cells (from UniProt P29320 21-541) | 0.55 µg/mL
3 | HEK8 soluble receptor (purified extracellular domain) (from UniProt P54764 20-547) | 10.5 µg/mL
